Tests used:
[1] = target: T1, recombinant cynomolgus C1r2s2 tetramer (cynomolgus monkey, limits assumed); assay: SPR (Biacore T200), IPN009 immobilised on CM5 chip as capture antibody
T1 construct: also called cyC1r2s2; monkey C1r2s2
T1 chain 1: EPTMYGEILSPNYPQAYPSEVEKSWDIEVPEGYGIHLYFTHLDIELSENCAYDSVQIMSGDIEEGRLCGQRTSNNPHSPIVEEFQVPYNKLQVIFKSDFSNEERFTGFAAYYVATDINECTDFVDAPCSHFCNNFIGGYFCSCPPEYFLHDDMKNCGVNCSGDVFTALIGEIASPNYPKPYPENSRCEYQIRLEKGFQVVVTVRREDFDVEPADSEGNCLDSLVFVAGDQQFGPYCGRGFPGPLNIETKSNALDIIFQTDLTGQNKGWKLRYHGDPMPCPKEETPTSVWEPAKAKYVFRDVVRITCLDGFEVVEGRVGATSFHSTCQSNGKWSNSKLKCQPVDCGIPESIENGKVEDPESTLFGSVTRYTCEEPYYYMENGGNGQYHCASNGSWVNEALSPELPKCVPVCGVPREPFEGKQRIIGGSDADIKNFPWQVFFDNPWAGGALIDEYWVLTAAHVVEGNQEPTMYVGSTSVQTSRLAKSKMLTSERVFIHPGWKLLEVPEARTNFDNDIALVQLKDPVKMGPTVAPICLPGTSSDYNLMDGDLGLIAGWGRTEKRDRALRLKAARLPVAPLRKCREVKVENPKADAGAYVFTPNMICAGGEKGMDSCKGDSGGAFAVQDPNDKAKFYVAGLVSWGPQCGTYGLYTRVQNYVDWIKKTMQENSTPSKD
T1 chain 2: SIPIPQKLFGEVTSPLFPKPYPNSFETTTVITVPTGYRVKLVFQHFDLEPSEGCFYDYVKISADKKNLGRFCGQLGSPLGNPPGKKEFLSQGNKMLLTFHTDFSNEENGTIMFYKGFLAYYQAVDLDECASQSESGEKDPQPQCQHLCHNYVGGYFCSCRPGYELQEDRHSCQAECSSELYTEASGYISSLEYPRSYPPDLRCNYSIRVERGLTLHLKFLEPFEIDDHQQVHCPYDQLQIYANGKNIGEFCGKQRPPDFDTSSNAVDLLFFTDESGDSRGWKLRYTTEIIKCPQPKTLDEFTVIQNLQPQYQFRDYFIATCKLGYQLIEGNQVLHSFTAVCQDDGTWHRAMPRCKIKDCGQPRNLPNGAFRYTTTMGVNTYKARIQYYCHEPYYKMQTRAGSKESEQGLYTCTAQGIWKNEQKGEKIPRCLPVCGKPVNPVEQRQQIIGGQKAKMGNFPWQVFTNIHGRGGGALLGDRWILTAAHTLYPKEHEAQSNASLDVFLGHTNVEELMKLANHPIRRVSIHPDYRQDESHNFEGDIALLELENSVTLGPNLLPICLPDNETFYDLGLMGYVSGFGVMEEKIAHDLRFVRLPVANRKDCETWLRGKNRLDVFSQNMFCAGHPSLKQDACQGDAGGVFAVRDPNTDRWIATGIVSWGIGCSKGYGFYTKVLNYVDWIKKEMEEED
Protocol: (§1) The binding property of each sample at pH7.4 and pH6.0 was determined at 37° C. using BIACORE® T200 instrument (Cytiva). […] 20 mM ACES, 150 mM NaCl, 1.2 mM CaCl₂, 1 mg/mL BSA (not containing IgG), 1 mg/mL CMD, 0.05% Tween® 20, 0.005 w/v % NaN₃, pH7.4 or pH6.0 buffer was used as the running buffer. […] The antibody solution was added thereto at 30 μL/min for 120 seconds, the running buffer was then added at 30 μL/min for 180 seconds, and the dissociation constant (KD) of each antibody for hC1r2s2 and cyC1r2s2 was calculated. […] The sensor surface was regenerated every cycle, using 3 M MgCl2 (prepared in-house). The KD value was calculated using BIACORE® T200 evaluation software version 2.0 (Cytiva). The binding strengths under each pH condition were compared by dividing the KD value at pH6.0 with the KD value at pH7.4.

[2] = target: T2, recombinant human C1r2s2 tetramer (human, UniProt P09871 16-688; P00736 18-705); assay: as above
T2 construct: C1s and C1r co-expressed in HEK293 and purified from the supernatant as tetramer; also called hC1r2s2
T2 chain 1: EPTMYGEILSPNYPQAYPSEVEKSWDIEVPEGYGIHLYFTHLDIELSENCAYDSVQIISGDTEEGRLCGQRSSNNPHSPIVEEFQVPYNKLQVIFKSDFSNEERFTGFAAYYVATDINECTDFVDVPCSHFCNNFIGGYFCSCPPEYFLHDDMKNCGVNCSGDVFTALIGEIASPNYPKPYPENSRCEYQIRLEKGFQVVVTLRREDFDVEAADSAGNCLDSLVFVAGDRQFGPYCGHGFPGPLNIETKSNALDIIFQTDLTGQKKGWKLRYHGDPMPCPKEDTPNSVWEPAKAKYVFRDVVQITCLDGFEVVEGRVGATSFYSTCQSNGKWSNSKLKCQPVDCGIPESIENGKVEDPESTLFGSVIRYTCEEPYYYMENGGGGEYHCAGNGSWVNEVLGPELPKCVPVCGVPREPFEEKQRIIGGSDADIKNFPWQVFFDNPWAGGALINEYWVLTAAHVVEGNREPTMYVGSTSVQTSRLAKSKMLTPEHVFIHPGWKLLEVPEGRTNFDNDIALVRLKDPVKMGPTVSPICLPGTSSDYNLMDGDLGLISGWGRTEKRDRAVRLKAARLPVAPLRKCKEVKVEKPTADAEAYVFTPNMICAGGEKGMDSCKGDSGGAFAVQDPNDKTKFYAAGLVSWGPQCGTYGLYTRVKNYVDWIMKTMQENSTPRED
T2 chain 2: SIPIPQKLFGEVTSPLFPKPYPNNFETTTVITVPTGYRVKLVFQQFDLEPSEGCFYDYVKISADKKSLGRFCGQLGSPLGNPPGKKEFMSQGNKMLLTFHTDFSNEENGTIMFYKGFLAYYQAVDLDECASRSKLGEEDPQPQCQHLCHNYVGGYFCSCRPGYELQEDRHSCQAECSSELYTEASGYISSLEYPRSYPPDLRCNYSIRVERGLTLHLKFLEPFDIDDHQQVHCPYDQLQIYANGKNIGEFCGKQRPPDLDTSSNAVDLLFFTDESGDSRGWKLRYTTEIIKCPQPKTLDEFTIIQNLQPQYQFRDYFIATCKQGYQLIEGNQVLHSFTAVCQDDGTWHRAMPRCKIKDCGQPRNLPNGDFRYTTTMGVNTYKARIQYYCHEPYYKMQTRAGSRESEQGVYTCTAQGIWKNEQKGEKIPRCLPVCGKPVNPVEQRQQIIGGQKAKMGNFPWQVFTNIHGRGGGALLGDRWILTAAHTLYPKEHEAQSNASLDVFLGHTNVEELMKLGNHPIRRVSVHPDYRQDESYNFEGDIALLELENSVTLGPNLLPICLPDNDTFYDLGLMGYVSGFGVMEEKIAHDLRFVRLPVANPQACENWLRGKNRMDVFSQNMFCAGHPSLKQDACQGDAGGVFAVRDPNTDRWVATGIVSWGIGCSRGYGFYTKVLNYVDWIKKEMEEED
Protocol: as §1

[3] = target: T2, recombinant human C1r2s2 tetramer; assay: SPR (Biacore T200), 37 C, pH 6.0; hC1r2s2 captured by IPN009, antibody as analyte; pH 6.0, 37 C; hC1r2s2 captured by IPN009 on the chip, antibody as analyte
Protocol: as §1

[4] = target: T2, recombinant human C1r2s2 tetramer; assay: SPR (Biacore T200), 37 C, pH 7.4; hC1r2s2 captured by IPN009, antibody as analyte; pH 7.4, 37 C; hC1r2s2 captured by IPN009 on the chip, antibody as analyte
Protocol: as §1

[5] = target: T1, recombinant cynomolgus C1r2s2 tetramer; assay: SPR (Biacore T200), 37 C, pH 7.4; cyC1r2s2 captured by IPN009, antibody as analyte
Protocol: as §1

[6] = target: T1, recombinant cynomolgus C1r2s2 tetramer; assay: SPR (Biacore T200), 37 C; ratio of KD at pH 6.0 to KD at pH 7.4
Protocol: as §1

[7] = target: T2, recombinant human C1r2s2 tetramer; assay: as above
Protocol: as §1

[8] = target: T1, recombinant cynomolgus C1r2s2 tetramer; assay: SPR (Biacore T200), 37 C, pH 6.0; cyC1r2s2 captured by IPN009, antibody as analyte
Protocol: as §1

B1: IPN009VH2VK3-SG1148 (antibody, human IgG1, kappa, V domains shown)
VH: EVMLVESGGGLVKPGGSLRLSCAASGFTFSNYAMSWVRQAPGKGLEWVATISSGGSHTYYLDSVKGRFTISRDNSKDTLYLQMNSLRAEDTALYYCARLFTGYAMDYWGQGTLVTVSS
VL: QIVLTQSPATLSLSPGERATLSCTASSSVSSSYLHWYQQKPGKAPKLWIYSTSNLASGVPSRFSGSGSGTDYTLTISSLQPEDFATYYCHQYYRLPPITFGQGTKLEIKR
notes: Anti-C1s / anti-human C1r2s2 antibody immobilised on the chip as capture reagent
binding result [1]: binds
binding result [2]: binds

B2: COS0637pHv3-TT91R (antibody, human IgG1, V domains shown)
VH: QVQLVESGGGVVQPGRSLRLSCAASGFTFSAYAMNWIRQPPGKGLEWIGLIYGSGHEFYASWAEERVTISVDTSKNQFSLKLSSVTAADTAVYYCARGRSKNYVSGFHLWGQGTLVTVSS
VL: DIQMTQSPSSLSASVGDRVTITCQASQILHDKKNLAWYQQKPGQPPKLLIYQASQLESGVPSRFSGSGSGTDFTLTISSLQPEDFATYYCHGEFSYESADLNQFGQGTKVEIKR
notes: Modified human IgG1 constant region TT91R, light chain constant region SK1
Kd [3]: 10.3 nM
Kd [4]: 0.388 nM
Kd [5]: 0.502 nM
KD (pH 6.0)/KD (pH 7.4) [6]: 43.8
KD (pH 6.0)/KD (pH 7.4) [7]: 26.5
Kd [8]: 22 nM

— US20240287163A1 (Chugai, published 2024)
